In patent US20030049258A1, “Method of increasing the contractility of a heart, a heart muscle or cells of a heart muscle” (priority 2001, published 2003):

Experiments:
[1] = tested on: adult ventricular cardiomyocytes; test: Intracellular cAMP formation in cardiomyocytes (ELISA); type: cell-based, rabbit
Procedure: (§1) Single calcium-tolerant ventricular myocytes were isolated from White New Zealand rabbits. Cardiomyocytes from healthy or failing rabbit hearts were isolated according to the same protocol (Laugwitz et al. (2001) Circ Res. 88, 688-95). Briefly, the hearts were perfused and digested with collagenase. The isolated cardiomyocytes were then resuspended and cultured in modified M199 on laminin-precoated dishes (5-10 μg/cm^2) at a density of 1.5×10^5 cells per cm^2 (at 5% CO2 and 37° C.). The cells were infected with adenovirus (multiplicity of infection (moi) 1 pfu/cell) 5 hours after plating. 50-60% of the infected cardiomyocytes express the transgene at this titer. Cardiomyocytes were harvested 48 hours after adenoviral infection. The cells were homogenized and cytosolic extracts were then used for western bloffing by using a polyclonal rabbit antibody raised against phosducin. Goat anti-rabbit second antibodies by Dianova, Germany, were used as second antibodies.
Intracellular cAMP formation in cardiomyocytes: The effects of nt-del-phosducin expression on G protein-mediated signalling are shown based on the measurement of cAMP accumulation in isolated cardiomyocytes after ex vivo gene transfer. Cardiomyocytes were investigated 48 hours after adenoviral infection. The cells were harvested and stimulated with increasing concentrations of isoproterenol for 20 minutes. […]

adenylyl cyclase = conditions: compared to controls in different cell types and tissues (Bauer et al. 1992; Schulz et al. 1996); cited from earlier work
[2] = tested on: transgenic heart failure model (β1-TG4); test: Transgenic mouse overexpressing full-length phosducin cross-bred with heart failure model (histology); type: in vivo; conditions: heart-failing mice vs heart-failing mice cross-bred with overexpressing mice
Procedure: FIG. 8 Histological alterations in transgenic mouse hearts. Hematoxylin/eosin-stained 5 μm sections of paraffin-embedded left ventricular myocardium from healthy wild-type mice and from a transgenic heart failure model (,β-TG4”, see Engelhardt et al. (1999) Proc. Natl. Acad. Sci. USA 96, 7059-64). […] The sequence of full-length phosducin was cloned into a plasmid as described by Engelhardt et al. (1999) Proc. Natl. Acad. Sci. USA 96, 7059-64. The purified linear DNA (1 μg/μl) was injected into fertilized oocytes from superovulated FVB/N mice according to standard procedures. The injected oocytes were transferred to the oviducts of pseudopregnant CD-1 mice. All mice were kept in a specific pathogen-free facility. Generation and investigation of these mice was approved by the responsible government authorities. The F0 generation was screened for integration of the transgene by PCR using specific primers. The transgenic mouse was tested with regard to the effect of overexpression of wild type full-length phosducin on the development of heart failure in a murine disease model.

[3] = tested on: cardiomyocytes isolated from healthy hearts; test: Single cell contraction after ex vivo adenoviral gene transfer, healthy cardiomyocytes; type: cell-based, rabbit
Procedure: (§2) Recombinant (E1/E3-Deficient) flag-tagged adenovirus for nt-del-phosducin (Ad-nt-del-phosducin-GFP) was generated, expressing the transgene and green fluorescence protein (GFP) under the control of two independent CMV promoters in a bi-cistronic system (He et al. (1998) Proc Natl Acad Sci USA 95, 2509-14). As a control, Ad-GFP without further transgenes was used. Large virus stocks were prepared as described previously (Laugwitz et al. (1999) Circulation 99, 925-933). Adenoviral titers were determined using plaque titration and GFP expression titration in non E1-expressing cells.
as §1
(§3) Single cell contraction after adenovirus delivery: Contractility of infected cardiomyocytes was measured by an electro-optical monitoring system connected to online digitalized assessment of amplitude and velocity of shortening and of relaxation as described before (Laugwitz et al. (2001) Circ Res. 88, 688-95). After the contraction amplitude reached stability, increasing concentrations of isoproterenol were applied.

[4] = tested on: Gβγ-dependent signalling pathways; test: IP3 assay: inhibition of Gβγ-mediated effects in adenovirus-infected cardiomyocytes; type: cell-based, rabbit; conditions: response to 1 μmol/L bradykinin or 10 μmol/l acetylcholine, 1 minute, vs Ad-GFP
Procedure: For IP3 assays, adenovirus-infected cardiomyocytes were stimulated with the respective agonists for 1 minute, and the reaction was stopped by adding perchloric acid (4%) and scratching the cells off. They were centrifuged at 2000×g, and then […] of KOH (10 mol/L) was added. The solution was resuspended and centrifuged again, and the protein content of each sample was determined by the method of Bradford (1976) Anal. Biochem. 72, 248-254. The supernatant was used for an assay kit using ^3H-inositol-(1,4,5)-trisphophate and a binding protein (Amersham, cat. no. TRK 1000) to measure IP3 formation, following the manufacturer's instructions.
For IP3 assays, cardiomyocytes infected with Ad-GFP or Ad-nt-del-phosducin-GFP (Example 1) were stimulated with 1 μmol/L bradykinin or 10 μmol/l acetyl choline, for 1 minute. In addition, basal levels were determined in the absence of agonists. Then the reaction was stopped by adding perchloric acid (4%) and scratching the cells off. They were centrifuged at 2000×g, and then 10 μl of KOH (10 mol/L) was added. The solution was resuspended and centrifuged again, and the protein content of each sample was determined by the method of Bradford^22. The supernatant was used for an assay kit using ^3H-inositol-(1,4,5)-trisphophate and a binding protein (Amersham, cat. no. TRK 1000) to measure IP3 formation, following the manufacturer's instructions. […]

[5] = tested on: rabbits with heart failure; test: Pacing-induced heart failure after in vivo adenoviral gene transfer: tip catheterization and echocardiography; set-up: species or system New Zealand White rabbits
From the text: Model of Heart Failure: Medtronic pacemakers were implanted into New Zealand White rabbits (weight 3.6±0.3 Kg; from Harlan, Munich, Germany). Two days afterwards, rapid pacing was initiated at 320 beats/min. Under this protocol, a tachycardia-induced heart failure (HF) develops reproducibly over one week. Pacing was then continued at 360 beats/min, which predictably led to a further deterioriation of heart failure. The average contractility in failing hearts was 2200±320 mmHg/sec (vs. 4000±390 mmHg/sec in healthy controls; p<0.05), and LVEDP increased from 3.6±0.4 mmHg to 13.5±1.2 (p<0.05).
Adenoviral Gene Transfer To Rabbit Myocardium: After the first week of rapid pacing, all rabbits received catheter-based adenoviral gene transfer (5×10^9 pfu) to the myocardium as described before (Weig et al. (2000) Circulation 101, 1578-1585). For the intervention, the rabbitswere anesthetized with fentanyl and propofol.
Myocardial Contractility Measurement by Echocardiography and Intraventricular Tip Catheterization: Left ventricular contractility was examined before the initiation of rapid pacing, before adenoviral gene transfer, and at the end of the protocol (two weeks after the start of pacing and one week after gene transfer). The rabbits were anesthetized as described before; ECG was monitored continuously.
For echocardiography, a 7.5 MHz probe was fixed on a tripod. Standard sections were recorded, which were well reproducible. For tip catheter measurements, a Millar 3F tip catheter connected to a differentiating device was placed in the left ventricle. After definition of basal contractility and left ventricular pressure, 200 μL of NaCl (0.9%) was injected as a negative control. Isoproterenol was infused at increasing doses. After a sufficient equilibration period, tip catheter measurements were carried out.
Improvement of LV dysfunction in pacing-induced heart failure after adenovirus delivery: Ad-GFP and Ad-nt-del-phosducin-GFP were directly delivered to rabbit hearts after 1 week of rapid pacing, and hemodynamic parameters were measured after another week of pacing at 360 bpm. […]

[6] = tested on: cardiomyocytes isolated from failing hearts; test: Single cell contraction after ex vivo adenoviral gene transfer, failing cardiomyocytes; type: cell-based, rabbit
Procedure: as §2, §1, §3

CC(C)NCC(O)c1ccc(O)c(O)c1 (stereo not drawn) [isoproterenol, reference compound]
intracellular cAMP content ([1]; isoproterenol stimulation, all groups, FIG. 3): increased

B1: full-length phosducin: Wild type full-length phosducin, Gβγ binding protein; overexpressed in transgenic mouse hearts (protein)
chain: MEEAKSQSLEEDFEGQATHTGPKGVINDWRKFKLESQDSDSIPPSKKEILRQMSSPQSRNGKDSKERVSRKMSIQEYELIHKEKEDENCLRKYRRQCMQDMHQKLSFGPRYGFVYELETGKQFLETIEKELKITTIVVHIYEDGIKGCDALNSSLTCLAAEYPIVKFCKIKASNTGAGDRFSLDVLPTLLIYKGGELISNFISVAEQFAEEFFAGDVESFLNEYGLLPEREVHVLEHTKIEEEDVE
maximal βAR-dependent adenylyl cyclase stimulability (adenylyl cyclase): significantly decrease
degree of heart failure (histologically: myocyte hypertrophy and fibrosis of heart sections) [2]: no observable differences

B2: nt-del-phosducin: N-terminal truncated human phosducin variant of SEQ ID No: 2 (52 N-terminal amino acids deleted), expressed from adenovirus Ad-nt-del-phosducin-GFP (protein, listed as Homo sapiens)
chain: MSSPQSRDDKDSKERFSRKMSVQEYELIHKDKEDENCLRKYRRQCMQDMHQKLSFGPRYGFVYELESGEQFLETIEKEQKITTIVVHIYEDGIKGCDALNSSLICLAAEYPMVKFCKIKASNTGAGDRFSSDVLPTLLVYKGGELLSNFISVTEQLAEEFFTGDVESFLNEYGLLPEKEMHVLEQSNMEEDME
modifications: GFP expressed via adenovirus
basal and maximal contractility in response to isoproterenol ([3]; compared to Ad-GFP-infected control cells, FIG. 5A): markedly increased
shortening velocity ([3]; compared with contraction amplitude results, normal and failing cardiomyocytes): Very similar results
Emax of fractional shortening in response to isoproterenol ([3]; healthy cells, infected ex vivo, Hill equation fit): 11.2±0.2
shift of isoproterenol concentration-response curve ([3]; normal cells): significantly shifted to the left
intracellular IP3 formation [4]: reduced
cAMP formation in response to isoproterenol ([1]; 48 hours after infection, isoproterenol 20 minutes, vs GFP, did not reach statistical significance): trend towards decreased cAMP formation
LV fractional shortening (FS) by serial echocardiography ([5]; change during the second week of rapid pacing (before gene transfer vs end of experiment)): did not change
first derivative of LV pressure (dp/dt max) ([5]; one week after gene transfer, in response to isoproterenol, vs Ad-GFP-infected control group): significantly higher
increase in systolic LV pressure in response to isoproterenol ([5]; one week after gene transfer, vs Ad-GFP-infected control group): significantly higher
maximal contraction amplitude in response to isoproterenol ([6]; failing cardiomyocytes, FIG. 5B): enhanced
shift of isoproterenol concentration-response curve ([6]; failing cells): significantly shifted to the left
Emax of fractional shortening in response to isoproterenol ([6]; failing cells, infected ex vivo, Hill equation fit): 7.8±0.1
